{"source": "patent US20060286032A1", "about": "“A radiosotope-chitosan complex for treatment of prostate cancer” (priority 2003, published 2006)", "key": {"[1]": {"assay": "Histopathological examination of organs of rats of the orthotopic model (hematoxylin and eosin)", "format": "in vivo, noble rats", "conditions": "for Histopathological changes in organs other than the tumor tissue (heart, lung, liver, kidney, spleen, testes, epididymis, seminal vesicle, bladder, rectum): last day of the test", "excerpt": "(§1) From all rats tested in Experimental Example 7, which were sacrificed on the last day of the test, the heart, lung, liver, kidney, spleen, testes, epididymis, seminal vesicle, bladder, rectum and tumor tissues were excised, embedded in paraffin according to general tissue processing, and sectioned into a thickness of 3 μm. The tissue sections were subjected to double staining with hematoxylin and eosin and histopathologically examined."}, "[2]": {"test_system": "DU-145 carcinoma cell line (hormone-independent prostate carcinoma cell line)", "assay": "Antitumor effect in DU-145 subcutaneous tumor model, intratumoral injection", "format": "in vivo, nude mice", "conditions": "for Tumor volume after injection: intratumoral; for Tumor growth inhibition rate: last day of the test (2 wks), tumor volume vs control", "method": "To investigate the effect of the complex on hormone-independent prostate cancer, a DU-145 carcinoma cell line (hormone-independent prostate carcinoma cell line), which is rarely produces prostate-specific antigen, was transplanted into nude mice and the antitumor effect of the complex was evaluated.\nThe DU-145 cells were cultured in 10% FBS (fetal bovine serum)-containing F-12K(Kaign's Modification of Ham's F-12 medium) in a 5% CO2 incubator at 37° C., and 2×10^5 cells/0.2 ml/head were subcutaneously transplanted into the lumbar portion of male 6-week nude mice. When the long axis of the tumor was about 1 cm long, the complex solution was intratumorally injected. The administration volume of the test drug was 0.2 ml. The mice were divided into four groups: a control group (no treatment); two administration groups administered with the complex solution at doses of 10 mCi and 20 mCi per 1 cm^3 tumor; and another administration group administered with a non-radioactive complex solution [Holmium-165 (^165Ho)-chitosan complex solution]. Two weeks after administration with the complex solution, the mice were histopathologically examined to evaluate the antitumor effect and toxicity to major organs of the complex."}, "[3]": {"test_system": "AIT carcinoma (androgen-independent carcinoma cell line)", "assay": "Antitumor effect in AIT subcutaneous tumor model", "format": "in vivo, noble rats", "conditions": "for Tumor weight: four weeks after administration; for Tumor growth inhibition rate: four weeks, tumor weight vs control", "method": "To evaluate the effect of the complex on hormone-independent prostate cancer, an AIT carcinoma (androgen-independent carcinoma cell line) was transplanted into noble rats, and the antitumor effect of the complex was examined.\nAn androgen-independent, prostate carcinoma cell line, AIT, which is derived from noble rats, was cultured in 10% FBS-containing DMEM at 37° under 5% CO2. The cultured carcinoma cells were suspended in sterile physiological saline at a density of 4×10^6 cells/ml, and 2×10^6 cells were subcutaneously transplanted into the lateral abdomen of male 5-week noble rats. When the long axis of the tumor was about 1 cm long (in this test, 14 days after transplantation), the rats were grouped according to the tumor mass. The kit prepared in Example 2 was used as a test drug, and was administered at the same dose as in Experimental Example 5, that is, 0.2 ml. The rats were divided into four groups: a control group (no treatment); two administration groups administered with the complex solution at 10 mCi and 20 mCi per 1 cm^3 tumor; and another administration group administered with a non-radioactive complex solution (Holmium-165 (^165Ho)-chitosan complex solution). Four weeks after administration with the complex solution, tumors were excised from the rats, and tumor growth inhibition rates were measured by weighing the tumors."}, "[4]": {"test_system": "AIT tumor transplanted into the prostate gland", "assay": "Histopathological examination of tumor tissue of rats of the orthotopic model (hematoxylin and eosin)", "format": "in vivo, noble rats", "excerpt": "as §1"}, "[5]": {"test_system": "AIT prostate carcinoma cells", "assay": "Antitumor effect in orthotopic tumor model, AIT transplanted into the prostate gland", "format": "in vivo, noble rats", "method": "In addition to the subcutaneous tumor model tested in Experimental Example 6, the antitumor effect and side effects of the complex solution was examined in an orthotopic tumor model where AIT prostate carcinoma cells had been directly transplanted into the prostate gland. AIT cells were cultured in 10% FBS-containing DMEM at 37° under 5% CO2. The cultured carcinoma cells were suspended in sterile physiological saline at a density of 2×10^6 cells/0.05 ml. After noble rats were anesthetized with fentanyl and the abdomen was opened, 2×10^6 cells per rat were transplanted into the prostate gland of the rats. Seven days after carcinoma transplantation, the rats were randomly allocated. The kit prepared in Example 2 was used as a test drug, and 0.05 ml of the kit was administered. The rats were divided into four groups: a control group (no treatment); two administration groups administered with 0.5 mCi and 1.0 mCi of the complex solution; and another administration group administered with a non-radioactive complex solution (Holmium-165 (^165Ho)-chitosan complex solution). Two and four weeks after administration of the complex solution, the rats were sacrificed, and tumors were excised from the rats and weighed."}, "[6]": {"assay": "Autoradiography, complex solution versus ^166Ho(NO3)3.5H2O solution not containing chitosan, injected into the prostate gland", "format": "in vivo, rats", "conditions": "for Radioactive concentration, Administration site / Radioactive concentration, End region of femur / Radioactive concentration, Liver / Radioactive concentration, Spine / Radioactive concentration, Kidney / Radioactive concentration, Spleen: 25 μl (about 100 μCi)", "method": "To investigate advantages of the ^166Ho-chitosan complex, autoradiography was carried out for a group administered with the complex solution and a control group administered with a ^166Ho(NO3)3.5H2O solution not containing chitosan. In the complex solution administration group, 25 μl of the complex solution was administered, which was equal to about 100 μCi. The control group was administered with a ^166Ho(NO3)3.5H2O solution not containing chitosan with the same dosage and radioactive concentration as in the complex solution administration group. This test was carried out according to the same method as in Experimental Example 1, and each test drug was administered to the prostate gland. After 0.5, 2, 6 and 24 hrs, rats were sacrificed and evaluated by autoradiography. The measured radioactive concentrations (% ID/g) in various organs after injection of the complex solution and the ^166Ho(NO3)3.5H2O solution are given in Table 2, below."}, "[7]": {"conditions": "0.5 mCi, four weeks after administration (FIG. 2 C and D)"}}, "note": "“Also recorded” adds a separate entry of the source. Marks after values point to notes of the source that are not given here.", "data": [{"substance": "Holmium-166 (^166Ho)-Chitosan Complex [complex solution]", "values": [{"measurement": "Histopathological changes in organs other than the tumor tissue (heart, lung, liver, kidney, spleen, testes, epididymis, seminal vesicle, bladder, rectum)", "setting": "[1]; listed as present complex solution", "value": "no abnormalities in adjacent organs were found"}, {"measurement": "Histopathological changes in organs other than the tumor tissue (heart, lung, liver, kidney, spleen, testes, epididymis, seminal vesicle, bladder, rectum)", "setting": "[1]; listed as radioisotope-chitosan complex", "value": "particular histopathological changes are not found"}, {"measurement": "Cellularity of the bone marrow and peripheral blood", "setting": "[1]; rat, in vivo", "value": "not reduced"}, {"measurement": "Tumor volume after injection", "setting": "[2]; 10 mCi per 1 cm^3 tumor, 1 wk", "value": "0.48 ± 0.35", "unit": "cm^3"}, {"measurement": "Tumor volume after injection", "setting": "[2]; 10 mCi per 1 cm^3 tumor, 2 wks", "value": "0.32 ± 0.20* cm^3"}, {"measurement": "Tumor growth inhibition rate", "setting": "[2]; 10 mCi per 1 cm^3 tumor", "value": 95.1, "unit": "%"}, {"measurement": "Tumor volume after injection", "setting": "[2]; 20 mCi per 1 cm^3 tumor, 1 wk", "value": "0.28 ± 0.04", "unit": "cm^3"}, {"measurement": "Tumor volume after injection", "setting": "[2]; 20 mCi per 1 cm^3 tumor, 2 wks", "value": "0.09 ± 0.24* cm^3"}, {"measurement": "Tumor growth inhibition rate", "setting": "[2]; 20 mCi per 1 cm^3 tumor", "value": 98.6, "unit": "%"}, {"measurement": "Tumor growth inhibition rate", "setting": "[2]; 20 mCi per 1 cm^3 tumor, listed as Complex", "value": 98.6, "unit": "%"}, {"measurement": "Inhibitory activity against the tumor growth", "setting": "[2]; subcutaneous tumor model", "value": "higher than 95%"}, {"measurement": "Tumor weight", "setting": "[3]; 10 mCi per 1 cm^3 tumor", "value": "2.1 ± 0.78", "unit": "g"}, {"measurement": "Tumor growth inhibition rate", "setting": "[3]; 10 mCi per 1 cm^3 tumor", "value": 90.7, "unit": "%"}, {"measurement": "Tumor weight", "setting": "[3]; 20 mCi per 1 cm^3 tumor", "value": "0.7 ± 0.18", "unit": "g"}, {"measurement": "Tumor growth inhibition rate", "setting": "[3]; 20 mCi per 1 cm^3 tumor", "value": 96.7, "unit": "%"}, {"measurement": "Inhibitory activity against the tumor growth", "setting": "[3]; subcutaneous tumor model", "value": "higher than 90%"}, {"measurement": "Histopathology of the tumor, center of injection site", "setting": "[4]; [7]", "value": "broad necrosis"}, {"measurement": "Tumor cells in injection site", "setting": "[4]; [7]", "value": "all of tumor cells in injection site are necrotized"}, {"measurement": "Histopathology of the tumor tissue at the administration site", "setting": "[4]; last day of the test", "value": "a large necrosis"}, {"measurement": "Tumor weight", "setting": "[5]; 0.5 mCi, 2 wks after administration", "value": "0.45 ± 0.07", "unit": "g"}, {"measurement": "Tumor weight", "setting": "[5]; 0.5 mCi, 4 wks after administration", "value": "1.58 ± 0.97", "unit": "g"}, {"measurement": "Tumor weight", "setting": "[5]; 1.0 mCi, 2 wks after administration", "value": "0.49 ± 0.08", "unit": "g"}, {"measurement": "Tumor weight", "setting": "[5]; 1.0 mCi, 4 wks after administration", "value": "1.09 ± 0.32", "unit": "g"}, {"measurement": "Effect on tumor growth", "setting": "[5]; two weeks after administration, listed as present complex", "value": "showed an inhibitory effect against the tumor growth; also recorded: the tumor growth was suppressed"}, {"measurement": "Radioactive concentration, Administration site", "setting": "[6]; 30 min", "value": "4149 ± 1563.2", "unit": "% ID/g"}, {"measurement": "Radioactive concentration, End region of femur", "setting": "[6]; 30 min", "value": "0.04 ± 0.015", "unit": "% ID/g"}, {"measurement": "Radioactive concentration, Liver", "setting": "[6]; 30 min", "value": "0.01 ± 0.004", "unit": "% ID/g"}, {"measurement": "Radioactive concentration, Spine", "setting": "[6]; 30 min", "value": "0.01 ± 0.002", "unit": "% ID/g"}, {"measurement": "Radioactive concentration, Administration site", "setting": "[6]; 2 hrs", "value": "3246 ± 764.0", "unit": "% ID/g"}, {"measurement": "Radioactive concentration, End region of femur", "setting": "[6]; 2 hrs", "value": "0.07 ± 0.013", "unit": "% ID/g"}, {"measurement": "Radioactive concentration, Liver", "setting": "[6]; 2 hrs", "value": 0.016, "unit": "% ID/g"}, {"measurement": "Radioactive concentration, Spine", "setting": "[6]; 2 hrs", "value": "0.02 ± 0.004", "unit": "% ID/g"}, {"measurement": "Radioactive concentration, Administration site", "setting": "[6]; 6 hrs", "value": "4815 ± 1177.4", "unit": "% ID/g"}, {"measurement": "Radioactive concentration, End region of femur", "setting": "[6]; 6 hrs", "value": "0.21 ± 0.101", "unit": "% ID/g"}, {"measurement": "Radioactive concentration, Kidney", "setting": "[6]; 6 hrs", "value": "0.02^b % ID/g"}, {"measurement": "Radioactive concentration, Liver", "setting": "[6]; 6 hrs", "value": "0.04 ± 0.024", "unit": "% ID/g"}, {"measurement": "Radioactive concentration, Spine", "setting": "[6]; 6 hrs", "value": "0.05 ± 0.024", "unit": "% ID/g"}, {"measurement": "Radioactive concentration, Spleen", "setting": "[6]; 6 hrs", "value": "0.03 ± 0.027", "unit": "% ID/g"}, {"measurement": "Radioactive concentration, Administration site", "setting": "[6]; 24 hrs", "value": "3998 ± 705.1", "unit": "% ID/g"}, {"measurement": "Radioactive concentration, End region of femur", "setting": "[6]; 24 hrs", "value": "0.55 ± 0.324", "unit": "% ID/g"}, {"measurement": "Radioactive concentration, Kidney", "setting": "[6]; 24 hrs", "value": "0.03 ± 0.016", "unit": "% ID/g"}, {"measurement": "Radioactive concentration, Liver", "setting": "[6]; 24 hrs", "value": "0.04 ± 0.004", "unit": "% ID/g"}, {"measurement": "Radioactive concentration, Spine", "setting": "[6]; 24 hrs", "value": "0.14 ± 0.070", "unit": "% ID/g"}, {"measurement": "Radioactive concentration, Spleen", "setting": "[6]; 24 hrs", "value": "0.04 ± 0.010", "unit": "% ID/g"}, {"measurement": "Radioactivity retained in the administration site, the prostate gland", "setting": "[6]; 24 hrs after being administered", "value": "~90", "unit": "%"}]}]}
